Reference: patent US20230002480A1

Tests used:
Test in all cases: cell-based or functional assay
[1] = target: HIV-1 Env of pseudovirus A07412M1.vrc12 (HIV-1)
[2] = target: HIV-1 Env of pseudovirus 1056_10_TA11_1826 (HIV-1)
[3] = target: HIV-1 Env of pseudovirus X1632_S2_B10 (HIV-1)
[4] = target: HIV-1 Env of pseudovirus X2131_C1_B5 (HIV-1)
[5] = target: HIV-1 Env of pseudovirus HIV-0013095-2.11 (HIV-1)
[6] = target: HIV-1 Env of pseudovirus 1394C9G1(Rev-) (HIV-1)
[7] = target: HIV-1 Env of pseudovirus T255-34 (HIV-1)
[8] = target: HIV-1 Env of pseudovirus R1166.c01 (HIV-1)
[9] = target: HIV-1 Env of pseudovirus Ce1176_A3 (HIV-1)
[10] = target: HIV-1 Env of pseudovirus CNE5 (HIV-1)
[11] = target: HIV-1 Env of pseudovirus 3103.v3.c10 (HIV-1)
[12] = target: HIV-1 Env of pseudovirus CNE8 (HIV-1)
[13] = target: HIV-1 Env of pseudovirus THRO4156.18 (HIV-1)
[14] = target: HIV-1 Env of pseudovirus 6540.v4.c1 (HIV-1)
[15] = target: HIV-1 Env of pseudovirus BJOX015000.11.5 (HIV-1)
[16] = target: HIV-1 Env of pseudovirus HIV-001428-2.42 (HIV-1)
[17] = target: HIV-1 Env of pseudovirus BJOX028000.10.3 (HIV-1)
[18] = target: HIV-1 Env of pseudovirus Q461.e2 (HIV-1)
[19] = target: HIV-1 Env of pseudovirus 1012_11_TC21_3257 (HIV-1)
[20] = target: HIV-1 Env of pseudovirus 7030102001E5(Rev-) (HIV-1)
[21] = target: HIV-1 Env of pseudovirus CNE17 (HIV-1)
[22] = target: HIV-1 Env of pseudovirus TRJO4551.58 (HIV-1)
[23] = target: HIV-1 Env of pseudovirus P0402_c2_11 (HIV-1)
[24] = target: HIV-1 Env of pseudovirus SC05_8C11_2344 (HIV-1)
[25] = target: HIV-1 Env of pseudovirus CNE58 (HIV-1)
[26] = target: HIV-1 Env of pseudovirus 231965.c01 (HIV-1)
[27] = target: HIV-1 Env of pseudovirus TRO.11 (HIV-1)
[28] = target: HIV-1 Env of pseudovirus 211-9 (HIV-1)
[29] = target: HIV-1 Env of pseudovirus ZM109F.PB4 (HIV-1)
[30] = target: HIV-1 Env of pseudovirus RHPA4259.7 (HIV-1)
[31] = target: HIV-1 Env of pseudovirus ZM214M.PL15 (HIV-1)
[32] = target: HIV-1 Env of pseudovirus AC10.0.29 (HIV-1)

B1: N49P22 (antibody, V domains shown)
V domain 1: HIQLLQSGPQVKKSGDTVRISCETSGYNFVDSRIHWVRQTPEKRLRWMGWINPLQGGVNYAPEFQGRIRMTRDTFIDTVYVDLSGLTPADTAYYYCARGIDGKSYPFHFWGHGTRVTVFS
V domain 2: RFALTQPASVSGSPGQTITITCAGGSVSWFHFPPGKTPRLIIYESSKRPSGVSPRFSGSQSGSTASLIISGLQSDDEGTYFCSILEFFGRGTLVTVLS
With B1 the IC50 [1] was 9.6 µg/mL, the IC80 [1] was greater than 50 µg/mL and the MPI [1] was 63. It also gave an IC50 [2] of 2.99 µg/mL, an IC80 [2] greater than 50 µg/mL and an MPI [2] of 69. The IC50 [3] was greater than 50 µg/mL, the IC80 [3] was greater than 50 µg/mL and the MPI [3] was 0. For the same binder, the IC50 [4] was greater than 50 µg/mL, the IC80 [4] was greater than 50 µg/mL and the MPI [4] was 44. It also gave an IC50 [5] greater than 50 µg/mL, an IC80 [5] greater than 50 µg/mL and an MPI [5] of 9. The IC50 [6] was greater than 50 µg/mL, the IC80 [6] was greater than 50 µg/mL and the MPI [6] was 35. It also gave an IC50 [7] of 38.8 µg/mL, an IC80 [7] greater than 50 µg/mL and an MPI [7] of 55. It also gave an IC50 [8] of 0.232 µg/mL, an IC80 [8] of 0.799 µg/mL and an MPI [8] of 100. It also gave an IC50 [9] greater than 50 µg/mL, an IC80 [9] greater than 50 µg/mL and an MPI [9] of 23. It also gave an IC50 [10] of 0.281 µg/mL, an IC80 [10] of 1.55 µg/mL and an MPI [10] of 96. For the same binder, the IC50 [11] was greater than 50 µg/mL, the IC80 [11] was greater than 50 µg/mL and the MPI [11] was 16. It also gave an IC50 [12] of 5.35 µg/mL, an IC80 [12] of 40.4 µg/mL and an MPI [12] of 86. It also gave an IC50 [13] greater than 50 µg/mL, an IC80 [13] greater than 50 µg/mL and an MPI [13] of 32. The IC50 [14] was greater than 50 µg/mL, the IC80 [14] was greater than 50 µg/mL and the MPI [14] was 29. The IC50 [15] was 1.26 µg/mL, the IC80 [15] was 10.8 µg/mL and the MPI [15] was 89. It also gave an IC50 [16] of 0.73 µg/mL, an IC80 [16] of 7.1 µg/mL and an MPI [16] of 91. It also gave an IC50 [17] greater than 50 µg/mL, an IC80 [17] greater than 50 µg/mL and an MPI [17] of 0. The IC50 [18] was 11.2 µg/mL, the IC80 [18] was greater than 50 µg/mL and the MPI [18] was 66. For the same binder, the IC50 [19] was 15.7 µg/mL, the IC80 [19] was greater than 50 µg/mL and the MPI [19] was 53. The IC50 [20] was greater than 50 µg/mL, the IC80 [20] was greater than 50 µg/mL and the MPI [20] was 21. For the same binder, the IC50 [21] was 46.3 µg/mL, the IC80 [21] was greater than 50 µg/mL and the MPI [21] was 53. It also gave an IC50 [22] greater than 50 µg/mL, an IC80 [22] greater than 50 µg/mL and an MPI [22] of 28. The IC50 [23] was 5.93 µg/mL, the IC80 [23] was greater than 50 µg/mL and the MPI [23] was 73. The IC50 [24] was 0.251 µg/mL, the IC80 [24] was 2.16 µg/mL and the MPI [24] was 97. The IC50 [25] was 28.4 µg/mL, the IC80 [25] was greater than 50 µg/mL and the MPI [25] was 57. For the same binder, the IC50 [26] was 2.04 µg/mL, the IC80 [26] was 35.2 µg/mL and the MPI [26] was 83. The IC50 [27] was 0.283 µg/mL, the IC80 [27] was 1.36 µg/mL and the MPI [27] was 99. For the same binder, the IC50 [28] was greater than 50 µg/mL, the IC80 [28] was greater than 50 µg/mL and the MPI [28] was 18. For the same binder, the IC50 [29] was greater than 50 µg/mL, the IC80 [29] was greater than 50 µg/mL and the MPI [29] was 1. The IC50 [30] was 0.637 µg/mL, the IC80 [30] was 5.6 µg/mL and the MPI [30] was 92. For the same binder, the IC50 [31] was greater than 50 µg/mL, the IC80 [31] was greater than 50 µg/mL and the MPI [31] was 25. The IC50 [32] was greater than 50 µg/mL, the IC80 [32] was greater than 50 µg/mL and the MPI [32] was 0.
